This passage reports EC50 (read off the curve), Akt phosphorylation (P-AKT) [P-AKT] and EC50 (read off the curve), ERK phosphorylation (P-ERK) [P-ERK] results from US20170369545A1.

In the assay the target is tyrosine kinase receptor MET on HeLa cells (UniProt P08581).
Chain of tyrosine kinase receptor MET on HeLa cells (P08581 25-1390 limits assumed): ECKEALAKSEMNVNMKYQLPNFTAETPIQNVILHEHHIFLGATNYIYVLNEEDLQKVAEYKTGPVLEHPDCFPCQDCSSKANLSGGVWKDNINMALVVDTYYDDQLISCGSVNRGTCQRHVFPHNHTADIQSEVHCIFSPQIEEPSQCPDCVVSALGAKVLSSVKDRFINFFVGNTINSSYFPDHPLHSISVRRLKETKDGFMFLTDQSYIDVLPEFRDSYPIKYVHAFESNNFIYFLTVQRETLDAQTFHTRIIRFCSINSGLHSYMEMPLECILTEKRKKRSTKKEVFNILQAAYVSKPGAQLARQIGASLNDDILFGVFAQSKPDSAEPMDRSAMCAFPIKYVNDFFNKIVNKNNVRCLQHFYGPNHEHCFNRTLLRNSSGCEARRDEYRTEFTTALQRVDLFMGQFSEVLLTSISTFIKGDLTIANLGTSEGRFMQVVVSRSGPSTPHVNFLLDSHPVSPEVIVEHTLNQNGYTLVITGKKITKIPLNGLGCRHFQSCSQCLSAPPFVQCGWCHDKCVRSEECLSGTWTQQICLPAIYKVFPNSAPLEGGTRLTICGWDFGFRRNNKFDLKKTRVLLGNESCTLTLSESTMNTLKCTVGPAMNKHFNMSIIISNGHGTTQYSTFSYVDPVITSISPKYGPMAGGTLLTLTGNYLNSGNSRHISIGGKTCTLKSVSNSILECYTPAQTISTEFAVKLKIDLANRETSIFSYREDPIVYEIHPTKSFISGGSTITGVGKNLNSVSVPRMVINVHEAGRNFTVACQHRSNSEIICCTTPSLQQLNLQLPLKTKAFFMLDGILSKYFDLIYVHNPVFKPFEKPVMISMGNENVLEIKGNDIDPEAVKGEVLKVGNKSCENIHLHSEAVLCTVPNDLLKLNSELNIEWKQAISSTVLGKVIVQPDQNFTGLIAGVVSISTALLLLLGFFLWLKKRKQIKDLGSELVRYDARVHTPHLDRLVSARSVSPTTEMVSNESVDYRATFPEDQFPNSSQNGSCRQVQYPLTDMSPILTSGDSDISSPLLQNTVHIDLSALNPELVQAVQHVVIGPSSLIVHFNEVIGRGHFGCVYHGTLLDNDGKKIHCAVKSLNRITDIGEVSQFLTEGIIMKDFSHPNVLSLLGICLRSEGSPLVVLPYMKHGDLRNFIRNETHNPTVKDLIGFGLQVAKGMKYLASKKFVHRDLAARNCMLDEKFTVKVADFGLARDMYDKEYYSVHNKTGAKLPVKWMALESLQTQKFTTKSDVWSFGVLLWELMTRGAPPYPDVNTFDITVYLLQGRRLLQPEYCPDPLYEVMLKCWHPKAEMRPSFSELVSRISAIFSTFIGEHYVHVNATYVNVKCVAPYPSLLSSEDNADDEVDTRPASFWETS

In turn, “Hepatocyte growth factor/scatter factor (HGF/SF) (from UniProt P14210 32-728) (ligand)” displayed an EC50 (read off the curve), Akt phosphorylation (P-AKT) [P-AKT] of 0.03 nM and an EC50 (read off the curve), ERK phosphorylation (P-ERK) [P-ERK] of 0.02 nM.
